Values joined by “and” are separate entries in the source; they are usually repeats but may differ in a detail not shown here. Equal entries are not always repeated.
Assays:
[1] = molecular target: T1, human CXCR4 (hCXCR4), on CXCR4-positive cell line "CXCR4 E4" (human, UniProt P61073-2 2-356); assay: FACS binding confirmation with purified IgG on CXCR4-expressing cells
T1 construct: FACS target: 'Positive cells lines (CXCR4 E4)'; also called chemokine receptor 4; HuCXCR4

[2] = molecular target: T1, human CXCR4 (hCXCR4), on CXCR4-positive …; assay: FACS on CXCR4 E4 cells; serial dilution of Expi293F supernatant; anti-human IgG Alexa Fluor 647
Protocol: The DNA sequences encoding the chimeric antibody and humanized IgG heavy and light chains were synthesized and inserted into pCDNA3.4 vector to construct the expression plasmids of full-length IgGs. 18 humanized Abs were expressed in Expi293F cell culture, and then the cells were spun down. For affinity ranking, the supernatants were assayed by FACS against cell lines for the assessment of binding activity. Positive cells lines (CXCR4 E4) were cultured following the protocol and harvested by centrifugation. About 1×10⁵cells per well were washed with 1*PBS and incubated in a serial dilution of antibodies for 30 minutes at 4° C. After washing with PBS, secondary antibody [1 μg/ml Alexa Fluor® 647 AffiniPure Goat Anti-Human IgG (H+L)] was added to the cells and incubated in PBS for 30 minutes at 4° C. After washing with PBS, cells were analyzed for binding by using FACS Calibur (BD Bioscience, San Jose, Calif.) and Flowjo software. The antibodies were ranked by EC50.

T1 sequence (P61073 other isoform, or with tags, fused parts or gaps): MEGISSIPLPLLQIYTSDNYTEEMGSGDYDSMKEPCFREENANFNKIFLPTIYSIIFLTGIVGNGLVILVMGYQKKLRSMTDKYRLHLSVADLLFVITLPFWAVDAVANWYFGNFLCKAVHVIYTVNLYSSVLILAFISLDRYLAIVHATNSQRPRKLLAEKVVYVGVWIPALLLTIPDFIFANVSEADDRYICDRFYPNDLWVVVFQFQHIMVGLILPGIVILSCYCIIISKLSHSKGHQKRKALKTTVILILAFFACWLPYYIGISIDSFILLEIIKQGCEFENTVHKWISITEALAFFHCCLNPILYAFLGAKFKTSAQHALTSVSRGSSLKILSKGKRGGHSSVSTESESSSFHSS

Row | Binder | EC50 [1] [µg/mL] | EC50 [2]
1 | humanized IgG 2 (VH1/VL2) (antibody, Full-length humanized IgG; also called H1/L2) heavy: not shown light: DIVMTQSPLSLPVTPGEPVSISCRSSKSLLHSNGNTYLYWFLQKPGQSPQLLIYRMSNLASGVPDRFSGSGSGTDFTLKISRVEAEDVGVYYCMQHVEYPLTFGGGTKLEIKRTVAAPSVFIFPPSDEQLKSGTASVVCLLNNFYPREAKVQWKVDNALQSGNSQESVTEQDSKDSTYSLSSTLTLSKADYEKHKVYACEVTHQGLSSPVTKSFNRGEC | 1.72 | 2.19 µg/mL and 14.6 nM
2 | humanized IgG 1 (VH1/VL1) (antibody, V domains shown, Full-length humanized IgG; also called H1/L1) VH: QVQLVQSGAEVKKPGASVKVSCKASGYAFTDFHLNWVRQAPGQGLEWMGVINPYNGGTNYNQKFKDRVTMTRDTSISTAYMELSRLRSDDTAVYYCARYYASRYGYAMDYWGQGTLVTVSS VL: DIVMTQSPLSLPVTPGEPASISCRSSKSLLHSNGNTYLYWYLQKPGQSPQLLIYRMSNLASGVPDRFSGSGSGTDFTLKISRVEAEDVGVYYCMQHVEYPLTFGGGTKLEIKR | 1.6 | 1.72 µg/mL and 11.5 nM
3 | humanized IgG 3 (VH1/VL3) (antibody, Full-length humanized IgG; also called H1/L3) heavy: not shown light: DIVMTQSALSLPVTPGEPVSISCRSSKSLLHSNGNTYLYWFLQKPGQSPQLLIYRMSNLASGVPDRFSGSGSGTDFTLKISRVEAEDVGVYYCMQHVEYPLTFGGGTKLEIKRTVAAPSVFIFPPSDEQLKSGTASVVCLLNNFYPREAKVQWKVDNALQSGNSQESVTEQDSKDSTYSLSSTLTLSKADYEKHKVYACEVTHQGLSSPVTKSFNRGEC | 2.35 | 2.27 µg/mL and 15.2 nM
4 | humanized antibody VH4/VL2 (antibody, V domains shown, Expressed as full-length IgG in Expi293F cells and tested as supernatant) VH: QVQLVQSGAEVKKPGASVKMSCKASGYAFTDFHLNWVRQSHGQGLEWIGVINPYNGGTNYNQKFKDRVTLTVDTSISTAYMELSRLRSDDTAVYYCARYYASRYGYAMDYWGQGTLVTVSS VL: DIVMTQSPLSLPVTPGEPVSISCRSSKSLLHSNGNTYLYWFLQKPGQSPQLLIYRMSNLASGVPDRFSGSGSGTDFTLKISRVEAEDVGVYYCMQHVEYPLTFGGGTKLEIK |  | 1.99 µg/mL and 13.2 nM
5 | humanized antibody VH2/VL1 (antibody, V domains shown, Expressed as full-length IgG in Expi293F cells and tested as supernatant) VH: QVQLVQSGAEVKKPGASVKVSCKASGYAFTDFHLNWVRQSPGQGLEWIGVINPYNGGTNYNQKFKDRVTLTVDTSISTAYMELSRLRSDDTAVYYCARYYASRYGYAMDYWGQGTLVTVSS VL: DIVMTQSPLSLPVTPGEPASISCRSSKSLLHSNGNTYLYWYLQKPGQSPQLLIYRMSNLASGVPDRFSGSGSGTDFTLKISRVEAEDVGVYYCMQHVEYPLTFGGGTKLEIK |  | 5.37 µg/mL and 35.8 nM
6 | humanized antibody VH2/VL3 (antibody, V domains shown, Expressed as full-length IgG in Expi293F cells and tested as supernatant) VH: QVQLVQSGAEVKKPGASVKVSCKASGYAFTDFHLNWVRQSPGQGLEWIGVINPYNGGTNYNQKFKDRVTLTVDTSISTAYMELSRLRSDDTAVYYCARYYASRYGYAMDYWGQGTLVTVSS VL: DIVMTQSALSLPVTPGEPVSISCRSSKSLLHSNGNTYLYWFLQKPGQSPQLLIYRMSNLASGVPDRFSGSGSGTDFTLKISRVEAEDVGVYYCMQHVEYPLTFGGGTKLEIK |  | 8.35 µg/mL and 55.7 nM
7 | humanized antibody VH3/VL1 (antibody, V domains shown, Expressed as full-length IgG in Expi293F cells and tested as supernatant) VH: QVQLVQSGAEVKKPGASVKVSCKASGYAFTDFHLNWVRQSHGQGLEWIGVINPYNGGTNYNQKFKDRVTLTVDTSISTAYMELSRLRSDDTAVYYCARYYASRYGYAMDYWGQGTLVTVSS VL: DIVMTQSPLSLPVTPGEPASISCRSSKSLLHSNGNTYLYWYLQKPGQSPQLLIYRMSNLASGVPDRFSGSGSGTDFTLKISRVEAEDVGVYYCMQHVEYPLTFGGGTKLEIK |  | 4.18 µg/mL and 27.9 nM
8 | humanized antibody VH2/VL2 (antibody, V domains shown, Expressed as full-length IgG in Expi293F cells and tested as supernatant) VH: QVQLVQSGAEVKKPGASVKVSCKASGYAFTDFHLNWVRQSPGQGLEWIGVINPYNGGTNYNQKFKDRVTLTVDTSISTAYMELSRLRSDDTAVYYCARYYASRYGYAMDYWGQGTLVTVSS VL: DIVMTQSPLSLPVTPGEPVSISCRSSKSLLHSNGNTYLYWFLQKPGQSPQLLIYRMSNLASGVPDRFSGSGSGTDFTLKISRVEAEDVGVYYCMQHVEYPLTFGGGTKLEIK |  | 4.82 µg/mL and 32.1 nM
9 | humanized antibody VH3/VL2 (antibody, V domains shown, Expressed as full-length IgG in Expi293F cells and tested as supernatant) VH: QVQLVQSGAEVKKPGASVKVSCKASGYAFTDFHLNWVRQSHGQGLEWIGVINPYNGGTNYNQKFKDRVTLTVDTSISTAYMELSRLRSDDTAVYYCARYYASRYGYAMDYWGQGTLVTVSS VL: DIVMTQSPLSLPVTPGEPVSISCRSSKSLLHSNGNTYLYWFLQKPGQSPQLLIYRMSNLASGVPDRFSGSGSGTDFTLKISRVEAEDVGVYYCMQHVEYPLTFGGGTKLEIK |  | 2.93 µg/mL and 19.5 nM

Now from value to binder:

Row | EC50 [1] [µg/mL] | EC50 [2] | Binder
10 |  | 1.45 µg/mL and 9.65 nM | humanized antibody VH6/VL1 (antibody, V domains shown, Expressed as full-length IgG in Expi293F cells and tested as supernatant) VH: QVQLVQSGAEVKKPGASVKMSCKASGYAFTDFHLNWVKQSHGQGLEWIGVINPYNGGTNYNQKFKDRATLTVDTSISTAYMELSRLRSDDSAVYYCARYYASRYGYAMDYWGQGTLVTVSS VL: DIVMTQSPLSLPVTPGEPASISCRSSKSLLHSNGNTYLYWYLQKPGQSPQLLIYRMSNLASGVPDRFSGSGSGTDFTLKISRVEAEDVGVYYCMQHVEYPLTFGGGTKLEIK
11 |  | 1.93 µg/mL and 12.8 nM | humanized antibody VH5/VL3 (antibody, V domains shown, Expressed as full-length IgG in Expi293F cells and tested as supernatant) VH: QVQLVQSGAEVKKPGASVKMSCKASGYAFTDFHLNWVKQSHGQGLEWIGVINPYNGGTNYNQKFKDRVTLTVDTSISTAYMELSRLRSDDTAVYYCARYYASRYGYAMDYWGQGTLVTVSS VL: DIVMTQSALSLPVTPGEPVSISCRSSKSLLHSNGNTYLYWFLQKPGQSPQLLIYRMSNLASGVPDRFSGSGSGTDFTLKISRVEAEDVGVYYCMQHVEYPLTFGGGTKLEIK
12 |  | 1.61 µg/mL and 10.7 nM | humanized antibody VH5/VL2 (antibody, V domains shown, Expressed as full-length IgG in Expi293F cells and tested as supernatant) VH: QVQLVQSGAEVKKPGASVKMSCKASGYAFTDFHLNWVKQSHGQGLEWIGVINPYNGGTNYNQKFKDRVTLTVDTSISTAYMELSRLRSDDTAVYYCARYYASRYGYAMDYWGQGTLVTVSS VL: DIVMTQSPLSLPVTPGEPVSISCRSSKSLLHSNGNTYLYWFLQKPGQSPQLLIYRMSNLASGVPDRFSGSGSGTDFTLKISRVEAEDVGVYYCMQHVEYPLTFGGGTKLEIK
13 |  | 2.86 µg/mL and 19.1 nM | humanized antibody VH6/VL3 (antibody, V domains shown, Expressed as full-length IgG in Expi293F cells and tested as supernatant) VH: QVQLVQSGAEVKKPGASVKMSCKASGYAFTDFHLNWVKQSHGQGLEWIGVINPYNGGTNYNQKFKDRATLTVDTSISTAYMELSRLRSDDSAVYYCARYYASRYGYAMDYWGQGTLVTVSS VL: DIVMTQSALSLPVTPGEPVSISCRSSKSLLHSNGNTYLYWFLQKPGQSPQLLIYRMSNLASGVPDRFSGSGSGTDFTLKISRVEAEDVGVYYCMQHVEYPLTFGGGTKLEIK
14 |  | 1.97 µg/mL and 13.2 nM | humanized antibody VH4/VL3 (antibody, V domains shown, Expressed as full-length IgG in Expi293F cells and tested as supernatant) VH: QVQLVQSGAEVKKPGASVKMSCKASGYAFTDFHLNWVRQSHGQGLEWIGVINPYNGGTNYNQKFKDRVTLTVDTSISTAYMELSRLRSDDTAVYYCARYYASRYGYAMDYWGQGTLVTVSS VL: DIVMTQSALSLPVTPGEPVSISCRSSKSLLHSNGNTYLYWFLQKPGQSPQLLIYRMSNLASGVPDRFSGSGSGTDFTLKISRVEAEDVGVYYCMQHVEYPLTFGGGTKLEIK
15 |  | 0.375 µg/mL and 2.5 nM | humanized antibody VH5/VL1 (antibody, V domains shown, Expressed as full-length IgG in Expi293F cells and tested as supernatant) VH: QVQLVQSGAEVKKPGASVKMSCKASGYAFTDFHLNWVKQSHGQGLEWIGVINPYNGGTNYNQKFKDRVTLTVDTSISTAYMELSRLRSDDTAVYYCARYYASRYGYAMDYWGQGTLVTVSS VL: DIVMTQSPLSLPVTPGEPASISCRSSKSLLHSNGNTYLYWYLQKPGQSPQLLIYRMSNLASGVPDRFSGSGSGTDFTLKISRVEAEDVGVYYCMQHVEYPLTFGGGTKLEIK
16 |  | 2.82 µg/mL and 18.8 nM | humanized antibody VH3/VL3 (antibody, V domains shown, Expressed as full-length IgG in Expi293F cells and tested as supernatant) VH: QVQLVQSGAEVKKPGASVKVSCKASGYAFTDFHLNWVRQSHGQGLEWIGVINPYNGGTNYNQKFKDRVTLTVDTSISTAYMELSRLRSDDTAVYYCARYYASRYGYAMDYWGQGTLVTVSS VL: DIVMTQSALSLPVTPGEPVSISCRSSKSLLHSNGNTYLYWFLQKPGQSPQLLIYRMSNLASGVPDRFSGSGSGTDFTLKISRVEAEDVGVYYCMQHVEYPLTFGGGTKLEIK
17 |  | 1.94 µg/mL and 13 nM | humanized antibody VH6/VL2 (antibody, V domains shown, Expressed as full-length IgG in Expi293F cells and tested as supernatant) VH: QVQLVQSGAEVKKPGASVKMSCKASGYAFTDFHLNWVKQSHGQGLEWIGVINPYNGGTNYNQKFKDRATLTVDTSISTAYMELSRLRSDDSAVYYCARYYASRYGYAMDYWGQGTLVTVSS VL: DIVMTQSPLSLPVTPGEPVSISCRSSKSLLHSNGNTYLYWFLQKPGQSPQLLIYRMSNLASGVPDRFSGSGSGTDFTLKISRVEAEDVGVYYCMQHVEYPLTFGGGTKLEIK
18 |  | 2.39 µg/mL and 16 nM | humanized antibody VH4/VL1 (antibody, V domains shown, Expressed as full-length IgG in Expi293F cells and tested as supernatant) VH: QVQLVQSGAEVKKPGASVKMSCKASGYAFTDFHLNWVRQSHGQGLEWIGVINPYNGGTNYNQKFKDRVTLTVDTSISTAYMELSRLRSDDTAVYYCARYYASRYGYAMDYWGQGTLVTVSS VL: DIVMTQSPLSLPVTPGEPASISCRSSKSLLHSNGNTYLYWYLQKPGQSPQLLIYRMSNLASGVPDRFSGSGSGTDFTLKISRVEAEDVGVYYCMQHVEYPLTFGGGTKLEIK
19 | 1.8 | 1.56 µg/mL and 10.4 nM | murine-human chimeric IgG1 derived from mAb 201D10A12C1 (A15) (antibody, V domains shown, also called Chimeric (VH/VL); 4 Chimeric (VH/VL)) VH: EVQLQQSGPVLVRPGASVKMSCKASGYAFTDFHLNWVKQSHGKSLEWIGVINPYNGGTNYNQKFKDKATLTVDKSSSTAYMELNRLTSEDSAVYYCARYYASRYGYAMDYWGQGTSVTVSS VL: DIVMTQAAPSVPVTPGESVSISCRSSKSLLHSNGNTYLYWFLQRPGQSPQLLIYRMSNLASGVPDRFSGSGSGTAFTLRISRVEAEDVGIYYCMQHVEYPLTFGAGTKLELKR
